Measured values: PMC12399007

Columns and labels:
[1] = biological target: F-actin (rabbit skeletal muscle actin, polymerized) (rabbit) (UniProt P68135); assay: co-sedimentation; high-speed centrifugation (HSC); 3.0 µM F-actin, alone or pre-incubated 15 min with 2.0 µM Tpm2 isoform, incubated with fascin 0-1.1 µM for 1 h at RT; 5 mM Tris-HCl, 100 mM NaCl, 2 mM MgCl2, 1 mM DTT, pH 7.5; Hill fit, apparent Kapp
[2] = biological target: F-actin saturated with Tpm2.1 (rabbit | human) (UniProt P68135); assay: as above
[3] = biological target: F-actin (rabbit skeletal muscle actin, polymerized) (rabbit) (UniProt P68135); assay: co-sedimentation; high-speed centrifugation (HSC, 1 h, 40,000 rpm, 20 °C); 3.0 µM F-actin pre-incubated with 0.3 µM fascin for 20 min, titrated with Tpm2 isoforms 0-3.0 µM; 5 mM Tris, 100 mM NaCl, 2 mM MgCl2, 1 mM DTT, pH 7.5; Hill fit, apparent Kapp; fascin band in the pellets also quantified

Row | Ka [1] [M⁻¹] | Ka [2] [M⁻¹] | percent reduction of fascin bound to F-actin [3] [%] | Substance
1 | 1.15e+07 | 8e+06 |  | recombinant mouse fascin-1 with GPLGS N-terminal extension (GST tag cleaved) (natural protein)
2 |  |  | 30 | Tpm2.4, recombinant N-terminally acetylated human tropomyosin isoform encoded by TPM2 (natural protein)
